The results in this text go back to US20190153065A1 (published 2019).

Assay [1] addresses T1, wild-type mouse PD-L1 mCherry (full-length mouse PD-L1 with C-terminal mCherry, on HEK 293 cells) (mouse, UniProt Q9EP73 19-290). Briefly: FACS titration; avid.
Assay [2] has as its target PD-L1 mutant D122A (mouse PD-L1-mCherry fusion) (mouse, UniProt Q9EP73 19-290). Kind of assay: FACS titration; avid.
The target in assay [3] is PD-L1 mutant Y123R (mouse PD-L1-mCherry fusion) (mouse, UniProt Q9EP73 19-290). Kind of assay: FACS titration; avid.
PD-L1 mutant Y123R (mouse PD-L1-mCherry fusion), sequence (Q9EP73 19-290 Y123R): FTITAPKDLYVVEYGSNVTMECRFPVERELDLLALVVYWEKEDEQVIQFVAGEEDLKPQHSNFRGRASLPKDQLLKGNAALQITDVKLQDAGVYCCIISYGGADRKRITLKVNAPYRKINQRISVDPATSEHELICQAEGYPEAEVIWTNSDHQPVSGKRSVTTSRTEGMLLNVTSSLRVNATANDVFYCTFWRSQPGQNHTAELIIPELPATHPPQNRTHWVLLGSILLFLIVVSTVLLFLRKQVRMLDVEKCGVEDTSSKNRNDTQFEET
The target in assay [4] is PD-L1 mutant K124A (mouse PD-L1-mCherry fusion) (mouse, UniProt Q9EP73 19-290). Kind of assay: FACS titration; avid.
PD-L1 mutant K124A (mouse PD-L1-mCherry fusion), sequence (Q9EP73 19-290 K124A): as the sequence (Q9EP73 19-290 Y123R) above, with R105Y, K106A counted along it
The target of assay [5] is PD-L1 mutant R125A (mouse PD-L1-mCherry fusion) (mouse, UniProt Q9EP73 19-290). Briefly: FACS titration; avid.
PD-L1 mutant R125A (mouse PD-L1-mCherry fusion), sequence (Q9EP73 19-290 R125A): as the sequence (Q9EP73 19-290 Y123R) above, with R105Y, R107A counted along it
In a further assay the target is D28R. Briefly: FACS titration; avid.
Assay [6] has as its target T1, wild-type mouse PD-L1 mCherry …. Briefly: FACS. In general terms: A flow cytometer gives signals particle by particle.
Assay [7] has as its target PD-L1 mutant Y56A (mouse PD-L1-mCherry fusion) (mouse, UniProt Q9EP73 19-290). Briefly: FACS.
Assay [8] addresses PD-L1 mutant G120D (mouse PD-L1-mCherry fusion) (mouse, UniProt Q9EP73 19-290). Briefly: FACS titration; avid.
Assay [9] addresses PD-L1 mutant D49R (mouse PD-L1-mCherry fusion) (mouse, UniProt Q9EP73 19-290). Kind of assay: FACS titration; avid.
Assay [10] has as its target PD-L1 mutant G119D (mouse PD-L1-mCherry fusion) (mouse, UniProt Q9EP73 19-290). Kind of assay: FACS titration; avid.

T1 sequence (Q9EP73 19-290): as the sequence (Q9EP73 19-290 Y123R) above, with R105Y counted along it
PD-L1 mutant G119D (mouse PD-L1-mCherry fusion), sequence (Q9EP73 19-290 G119D): as the sequence (Q9EP73 19-290 Y123R) above, with G101D, R105Y counted along it
PD-L1 mutant Y56A (mouse PD-L1-mCherry fusion), sequence (Q9EP73 19-290 Y56A): as the sequence (Q9EP73 19-290 Y123R) above, with Y38A, R105Y counted along it
PD-L1 mutant G120D (mouse PD-L1-mCherry fusion), sequence (Q9EP73 19-290 G120D): as the sequence (Q9EP73 19-290 Y123R) above, with G102D, R105Y counted along it
PD-L1 mutant D49R (mouse PD-L1-mCherry fusion), sequence (Q9EP73 19-290 D49R): as the sequence (Q9EP73 19-290 Y123R) above, with D31R, R105Y counted along it
PD-L1 mutant D122A (mouse PD-L1-mCherry fusion), sequence (Q9EP73 19-290 D122A): as the sequence (Q9EP73 19-290 Y123R) above, with D104A, R105Y counted along it

B1: wild-type mB7-1 Fc (residues D37-K245, mIgG2a-10×His) (Fc fusion)
chain: DVDEQLSKSVKDKVLLPCRYNSPHEDESEDRIYWQKHDKVVLSVIAGKLKVWPEYKNRTLYDNTTYSLIILGLVLSDRGTYSCVVQKKERGTYEVKHLALVKLSIKADFSTPNITESGNPSADTKRITCFASGGFPKPRFSWLENGRELPGINTTISQDPESELYTISSQLDFNTTRNHTIKCLIKYGDAHVSEDFTWEKPPEDPPDSK
modifications: C-terminal mIgG2a Fc-10×His (dimerising carrier), not in the letters
Broadly, the EC50 is the concentration at which the effect is half-maximal. Read a low EC50 as greater potency. B1: the 50% effective concentration (EC50) in assay [1] was found to be 39.2 nM; in assay [2], 68.2 nM; in assay [3], 7.7 nM; in [4] it was 54.9 nM; in assay [5], 20.2 nM.

B2: B7-1 (Fc fusion)
chain: B1 chain
modifications: C-terminal mIgG2a Fc-10×His (dimerising carrier), not in the letters
Take B2: a half-maximal effect with D28R (EC50) was put at 18.8 nM.

B3: wild-type mPD-1 Fc (residues L25-Q167, mIgG2a-10×His) (Fc fusion)
chain (part 1 of 2): LEVPNGPWRSLTFYPAWLTVSEGANATFTCSLSNWSEDLMLNWNRLSPSNQTEKQAAFCNGLSQPVQDARFQIIQLPNRHDFHMNILDTRRNDSGIYLCGAISLHPKAKIEESPGAELVVTERILETSTRYPSPSPKPEGRFQ
chain (part 2 of 2): HHHHHHHHHH
Consider B3, for which the EC50 in [6] is 1.8 nM; in assay [7] it was 1.9 nM; in assay [8] it was 2.8 nM; in [9], 1.8 nM; in assay [10], 2 nM; in assay [4] it was 42.9 nM. This molecule gave a half-maximal effective concentration (EC50) in assay [5] of 38.8 nM.

B4: PD-1 (Fc fusion)
chain (part 1 of 2): B3 chain (part 1 of 2)
chain (part 2 of 2): HHHHHHHHHH
In the assay with D28R, B4 came in with a concentration giving a half-maximal response (EC50) of 2.6 nM.
